This note sets out measurements from IntAct's records for PubMed 28864920.

B1: DNA repair protein RAD51 homolog 3 (Homo sapiens), O43502 (parent)
chain: MRGKTFRFEMQRDLVSFPLSPAVRVKLVSAGFQTAEELLEVKPSELSKEVGISKAEALETLQIIRRECLTNKPRYAGTSESHKKCTALELLEQEHTQGFIITFCSALDDILGGGVPLMKTTEICGAPGVGKTQLCMQLAVDVQIPECFGGVAGEAVFIDTEGSFMVDRVVDLATACIQHLQLIAEKHKGEEHRKALEDFTLDNILSHIYYFRCRDYTELLAQVYLLPDFLSEHSKVRLVIVDGIAFPFRHDLDDLSLRTRLLNGLAQQMISLANNHRLAVILTNQMTTKIDRNQALLVPALGESWGHAATIRLIFHWDRKQRLATLYKSPSQKECTVLFQIKPQGFRDTVVTSACSLQTEGSLSTRKRSRDPEEEL
partner: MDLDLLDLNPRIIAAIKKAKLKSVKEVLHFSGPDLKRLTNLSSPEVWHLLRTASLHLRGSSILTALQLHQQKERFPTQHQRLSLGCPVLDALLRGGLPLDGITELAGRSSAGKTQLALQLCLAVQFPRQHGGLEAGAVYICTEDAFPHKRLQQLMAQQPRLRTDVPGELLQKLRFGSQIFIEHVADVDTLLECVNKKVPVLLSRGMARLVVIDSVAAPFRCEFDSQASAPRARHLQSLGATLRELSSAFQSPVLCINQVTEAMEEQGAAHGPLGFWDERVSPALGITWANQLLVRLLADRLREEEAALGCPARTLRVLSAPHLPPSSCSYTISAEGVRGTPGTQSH
B2: DNA repair protein RAD51 homolog 3 (Homo sapiens), O43502 (parent)
chain: B1 chain
partner: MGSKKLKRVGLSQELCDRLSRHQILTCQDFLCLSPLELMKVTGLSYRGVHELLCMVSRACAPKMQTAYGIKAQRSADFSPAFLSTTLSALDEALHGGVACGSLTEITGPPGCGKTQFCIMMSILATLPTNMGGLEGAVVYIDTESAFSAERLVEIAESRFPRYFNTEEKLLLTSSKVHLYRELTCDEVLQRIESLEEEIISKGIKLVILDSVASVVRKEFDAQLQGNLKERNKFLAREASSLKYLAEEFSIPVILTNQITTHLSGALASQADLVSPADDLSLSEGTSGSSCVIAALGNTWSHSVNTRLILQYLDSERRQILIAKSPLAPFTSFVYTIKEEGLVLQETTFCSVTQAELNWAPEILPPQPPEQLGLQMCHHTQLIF
B3: DNA repair protein XRCC3 (Homo sapiens), O43542 (parent)
chain: B1 partner
partner: B1 chain
B4: DNA repair protein RAD51 homolog 1 (Homo sapiens), Q06609 (parent)
chain: MAMQMQLEANADTSVEEESFGPQPISRLEQCGINANDVKKLEEAGFHTVEAVAYAPKKELINIKGISEAKADKILAEAAKLVPMGFTTATEFHQRRSEIIQITTGSKELDKLLQGGIETGSITEMFGEFRTGKTQICHTLAVTCQLPIDRGGGEGKAMYIDTEGTFRPERLLAVAERYGLSGSDVLDNVAYARAFNTDHQTQLLYQASAMMVESRYALLIVDSATALYRTDYSGRGELSARQMHLARFLRMLLRLADEFGVAVVITNQVVAQVDGAAMFAADPKKPIGGNIIAHASTTRLYLRKGRGETRICKIYDSPCLPEAEAMFAINADGVGDAKD
partner: B1 partner
B5: DNA repair protein XRCC3 (Homo sapiens), O43542 (parent)
chain: B1 partner

The variants in one test derive from B1. The settings on record: with xrcc3_human XRCC3, O43542.
With MRGKTFRFEMQRDLVSFPLSPAVRVKLVSAGFQTAEELLEVKPSELSKEVGISKAEALETLQIIRRECLTNKPRYAGTSESHKKCTALELLEQEHTQGFIITFCSALDDILGGGVPLMKTTEICGAPGVGKTQLRMQLAVDVQIPECFGGVAGEAVFIDTEGSFMVDRVVDLATACIQHLQLIAEKHKGEEHRKALEDFTLDNILSHIYYFRCRDYTELLAQVYLLPDFLSEHSKVRLVIVDGIAFPFRHDLDDLSLRTRLLNGLAQQMISLANNHRLAVILTNQMTTKIDRNQALLVPALGESWGHAATIRLIFHWDRKQRLATLYKSPSQKECTVLFQIKPQGFRDTVVTSACSLQTEGSLSTRKRSRDPEEEL [C135R], the “effect of a mutation on the interaction” value is “disrupting interaction strength”.

The variants in a further test derive from B2. The settings on record: with ra51b_human RAD51B.
MRGKTFRFEMQRDLVSFPLSPAVRVKLVSAGFQTAEELLEVKPSELSKEVGISKAEALETLQIIRRECLTNKPRYAGTSESHKKCTALELLEQEHTQGFIITFCSALDDILGGGVPLMKTTEICGAPGVGKTQLRMQLAVDVQIPECFGGVAGEAVFIDTEGSFMVDRVVDLATACIQHLQLIAEKHKGEEHRKALEDFTLDNILSHIYYFRCRDYTELLAQVYLLPDFLSEHSKVRLVIVDGIAFPFRHDLDDLSLRTRLLNGLAQQMISLANNHRLAVILTNQMTTKIDRNQALLVPALGESWGHAATIRLIFHWDRKQRLATLYKSPSQKECTVLFQIKPQGFRDTVVTSACSLQTEGSLSTRKRSRDPEEEL [C135R]: the “effect of a mutation on the interaction” value was “disrupting interaction strength”.

The variants in a further test derive from B3. The settings on record: with ra51c_human RAD51C.
On to MDLDLLDLNPRIIAAIKKAKLKSVKEVLHFSGPDLKRLTNLSSPEVWHLLRTASLHLRGSSILTALQLHQQKERFPTQHQRLSLGCPVLDALLRGGLPLDGITELAGRSSAGKTQLALQLCLAVQFPRQHGGLEAGAVYICTEDAFPHKRLQQLMAQQPRLRTDVPGELLQKLRFGSQIFIEHVADVDTLLECVNKKVPVLLSRGMARLVVIDSVAAPFRCEFDSQASAPRARHLQSLGATLRELSSAFQSPVLCINQVTEAMEEQGAAHGPLGFWDERVSPALGITWANQLLVRLLADRLREEEAALGCPARTLRVLSAPHLPPSSCSYTISAEGERGTPGTQSH [V337E], for which the “effect of a mutation on the interaction” value is given as “disrupting interaction strength”.
The same measure, in the same setting: the value for MDLDLLDLNPRIIAAIKKAKLKSVKEVLHFSGPDLKRLTNLSSPEVWHLLRTASLHLRGSSILTALQLHQQKERFPTQHQRLSLGCPVLDALLRGGLPLDGITELAGRSSAGKTQLALQLCLAVQFPRQHGGLEAGAVYICTEDAFPHKRLQQLMAQQPRLRTDVPGELLQKLRFGSQIFIEHVADVDTLLECVNKKVPVLLSRGMARLVVIDSVAAPFRCEFDSQASAPRARHLQSLGATLRELSSAFQSPVLCINQVTEAMEEQGAAHGPLGFWDERVSPALGITWANQLLVRLPADRLREEEAALGCPARTLRVLSAPHLPPSSCSYTISAEGVRGTPGTQSH [L297P] was “disrupting interaction strength”.

The variants in another test derive from B4. The following applies: with xrcc3_human XRCC3, O43542.
As for MAMQMQLEANADTSVEEESFGPQPISRLEQCGINANDVKKLEEAGFHTVEAVAYVPKKELINIKGISEAKADKILAEAAKLVPMGFTTATEFHQRRSEIIQITTGSKELDKLLQGGIETGSITEMFGEFRTGKTQICHTLAVTCQLPIDRGGGEGKAMYIDTEGTFRPERLLAVAERYGLSGSDVLDNVAYARAFNTDHQTQLLYQASAMMVESRYALLIVDSATALYRTDYSGRGELSARQMHLARFLRMLLRLADEFGVAVVITNQVVAQVDGAAMFAADPKKPIGGNIIAHASTTRLYLRKGRGETRICKIYDSPCLPEAEAMFAINADGVGDAKD [A55V], the “effect of a mutation on the interaction” value is “with no effect”.
Still for that read-out and setting: the value for MAMQMQLEANADTSVEEESFGPQPISRLEQCGINANDVKKLEEAGFHTVEAVAYAPKKELINIKGISEAKADKILAEADKLVPMGFTTATEFHQRRSEIIQITTGSKELDKLLQGGIETGSITEMFGEFRTGKTQICHTLAVTCQLPIDRGGGEGKAMYIDTEGTFRPERLLAVAERYGLSGSDVLDNVAYARAFNTDHQTQLLYQASAMMVESRYALLIVDSATALYRTDYSGRGELSARQMHLARFLRMLLRLADEFGVAVVITNQVVAQVDGAAMFAADPKKPIGGNIIAHASTTRLYLRKGRGETRICKIYDSPCLPEAEAMFAINADGVGDAKD [A79D] was “decreasing interaction strength”.

In a further test the parent is B5. The following applies: with rad51_human RAD51, Q06609.
In the case of MDLDLLDLNPRIIAAIKKAKLKSVKEVLHFSGPDLKRLTNLSSPEVWHLLRTASLHLRGSSILTALQLHQQKERFPTQHQRLSLGCPVLDALLRGGLPLDGITELAGRSSAGKTQLALQLCLAVQFPRQHGGLEAGAVYICTEDAFPHKRLQQLMAQQPRLRTDVPGELLQKLRFGSQIFIEHVADVDTLLECVNKKVPVLLSRGMARLVVIDSVAAPFRCEFDSQASAPRARHLQSLGATLRELSSAFQSPVLCINQVTEAMEEQGAAHGPLGFWDERVSPALGITWANQLLVRLPADRLREEEAALGCPARTLRVLSAPHLPPSSCSYTISAEGVRGTPGTQSH [L297P], the “effect of a mutation on the interaction” value is listed as “disrupting interaction strength”.
Same read-out and setting: the entry for MDLDLLDLNPRIIAAIKKAKLKSVKEVLHFSGPDLKRLTNLSSPEVWHLLRTASLHLRGSSILTALQLHQQKERFPTQHQRLSLGCPVLDALLRGGLPLDGITELAGRSSAGKTQLALQLCLAVQFPRQHGGLEAGAVYICTEDAFPHKRLQQLMAQQPRLRTDVPGELLQKLRFGSQIFIEHVADVDTLLECVNKKVPVLLSRGMARLVVIDSVAAPFRCEFDSQASAPRARHLQSLGATLRELSSAFQSPVLCINQVTEAMEEQGAAHGPLGFWDERVSPALGITWANQLLVRLLADRLREEEAALGCPARTLRVLSAPHLPPSSCSYTISAEGERGTPGTQSH [V337E] is “disrupting interaction strength”.
